The record followed here is paper PMC12436637.

The target of this assay is low-density lipoprotein receptor LRP1 on human iPSC-derived cortical excitatory neurons (human (endogenous in iPSC-derived neurons)) (UniProt Q07954).
Chain of UniProt Q07954 (Q07954 20-4544): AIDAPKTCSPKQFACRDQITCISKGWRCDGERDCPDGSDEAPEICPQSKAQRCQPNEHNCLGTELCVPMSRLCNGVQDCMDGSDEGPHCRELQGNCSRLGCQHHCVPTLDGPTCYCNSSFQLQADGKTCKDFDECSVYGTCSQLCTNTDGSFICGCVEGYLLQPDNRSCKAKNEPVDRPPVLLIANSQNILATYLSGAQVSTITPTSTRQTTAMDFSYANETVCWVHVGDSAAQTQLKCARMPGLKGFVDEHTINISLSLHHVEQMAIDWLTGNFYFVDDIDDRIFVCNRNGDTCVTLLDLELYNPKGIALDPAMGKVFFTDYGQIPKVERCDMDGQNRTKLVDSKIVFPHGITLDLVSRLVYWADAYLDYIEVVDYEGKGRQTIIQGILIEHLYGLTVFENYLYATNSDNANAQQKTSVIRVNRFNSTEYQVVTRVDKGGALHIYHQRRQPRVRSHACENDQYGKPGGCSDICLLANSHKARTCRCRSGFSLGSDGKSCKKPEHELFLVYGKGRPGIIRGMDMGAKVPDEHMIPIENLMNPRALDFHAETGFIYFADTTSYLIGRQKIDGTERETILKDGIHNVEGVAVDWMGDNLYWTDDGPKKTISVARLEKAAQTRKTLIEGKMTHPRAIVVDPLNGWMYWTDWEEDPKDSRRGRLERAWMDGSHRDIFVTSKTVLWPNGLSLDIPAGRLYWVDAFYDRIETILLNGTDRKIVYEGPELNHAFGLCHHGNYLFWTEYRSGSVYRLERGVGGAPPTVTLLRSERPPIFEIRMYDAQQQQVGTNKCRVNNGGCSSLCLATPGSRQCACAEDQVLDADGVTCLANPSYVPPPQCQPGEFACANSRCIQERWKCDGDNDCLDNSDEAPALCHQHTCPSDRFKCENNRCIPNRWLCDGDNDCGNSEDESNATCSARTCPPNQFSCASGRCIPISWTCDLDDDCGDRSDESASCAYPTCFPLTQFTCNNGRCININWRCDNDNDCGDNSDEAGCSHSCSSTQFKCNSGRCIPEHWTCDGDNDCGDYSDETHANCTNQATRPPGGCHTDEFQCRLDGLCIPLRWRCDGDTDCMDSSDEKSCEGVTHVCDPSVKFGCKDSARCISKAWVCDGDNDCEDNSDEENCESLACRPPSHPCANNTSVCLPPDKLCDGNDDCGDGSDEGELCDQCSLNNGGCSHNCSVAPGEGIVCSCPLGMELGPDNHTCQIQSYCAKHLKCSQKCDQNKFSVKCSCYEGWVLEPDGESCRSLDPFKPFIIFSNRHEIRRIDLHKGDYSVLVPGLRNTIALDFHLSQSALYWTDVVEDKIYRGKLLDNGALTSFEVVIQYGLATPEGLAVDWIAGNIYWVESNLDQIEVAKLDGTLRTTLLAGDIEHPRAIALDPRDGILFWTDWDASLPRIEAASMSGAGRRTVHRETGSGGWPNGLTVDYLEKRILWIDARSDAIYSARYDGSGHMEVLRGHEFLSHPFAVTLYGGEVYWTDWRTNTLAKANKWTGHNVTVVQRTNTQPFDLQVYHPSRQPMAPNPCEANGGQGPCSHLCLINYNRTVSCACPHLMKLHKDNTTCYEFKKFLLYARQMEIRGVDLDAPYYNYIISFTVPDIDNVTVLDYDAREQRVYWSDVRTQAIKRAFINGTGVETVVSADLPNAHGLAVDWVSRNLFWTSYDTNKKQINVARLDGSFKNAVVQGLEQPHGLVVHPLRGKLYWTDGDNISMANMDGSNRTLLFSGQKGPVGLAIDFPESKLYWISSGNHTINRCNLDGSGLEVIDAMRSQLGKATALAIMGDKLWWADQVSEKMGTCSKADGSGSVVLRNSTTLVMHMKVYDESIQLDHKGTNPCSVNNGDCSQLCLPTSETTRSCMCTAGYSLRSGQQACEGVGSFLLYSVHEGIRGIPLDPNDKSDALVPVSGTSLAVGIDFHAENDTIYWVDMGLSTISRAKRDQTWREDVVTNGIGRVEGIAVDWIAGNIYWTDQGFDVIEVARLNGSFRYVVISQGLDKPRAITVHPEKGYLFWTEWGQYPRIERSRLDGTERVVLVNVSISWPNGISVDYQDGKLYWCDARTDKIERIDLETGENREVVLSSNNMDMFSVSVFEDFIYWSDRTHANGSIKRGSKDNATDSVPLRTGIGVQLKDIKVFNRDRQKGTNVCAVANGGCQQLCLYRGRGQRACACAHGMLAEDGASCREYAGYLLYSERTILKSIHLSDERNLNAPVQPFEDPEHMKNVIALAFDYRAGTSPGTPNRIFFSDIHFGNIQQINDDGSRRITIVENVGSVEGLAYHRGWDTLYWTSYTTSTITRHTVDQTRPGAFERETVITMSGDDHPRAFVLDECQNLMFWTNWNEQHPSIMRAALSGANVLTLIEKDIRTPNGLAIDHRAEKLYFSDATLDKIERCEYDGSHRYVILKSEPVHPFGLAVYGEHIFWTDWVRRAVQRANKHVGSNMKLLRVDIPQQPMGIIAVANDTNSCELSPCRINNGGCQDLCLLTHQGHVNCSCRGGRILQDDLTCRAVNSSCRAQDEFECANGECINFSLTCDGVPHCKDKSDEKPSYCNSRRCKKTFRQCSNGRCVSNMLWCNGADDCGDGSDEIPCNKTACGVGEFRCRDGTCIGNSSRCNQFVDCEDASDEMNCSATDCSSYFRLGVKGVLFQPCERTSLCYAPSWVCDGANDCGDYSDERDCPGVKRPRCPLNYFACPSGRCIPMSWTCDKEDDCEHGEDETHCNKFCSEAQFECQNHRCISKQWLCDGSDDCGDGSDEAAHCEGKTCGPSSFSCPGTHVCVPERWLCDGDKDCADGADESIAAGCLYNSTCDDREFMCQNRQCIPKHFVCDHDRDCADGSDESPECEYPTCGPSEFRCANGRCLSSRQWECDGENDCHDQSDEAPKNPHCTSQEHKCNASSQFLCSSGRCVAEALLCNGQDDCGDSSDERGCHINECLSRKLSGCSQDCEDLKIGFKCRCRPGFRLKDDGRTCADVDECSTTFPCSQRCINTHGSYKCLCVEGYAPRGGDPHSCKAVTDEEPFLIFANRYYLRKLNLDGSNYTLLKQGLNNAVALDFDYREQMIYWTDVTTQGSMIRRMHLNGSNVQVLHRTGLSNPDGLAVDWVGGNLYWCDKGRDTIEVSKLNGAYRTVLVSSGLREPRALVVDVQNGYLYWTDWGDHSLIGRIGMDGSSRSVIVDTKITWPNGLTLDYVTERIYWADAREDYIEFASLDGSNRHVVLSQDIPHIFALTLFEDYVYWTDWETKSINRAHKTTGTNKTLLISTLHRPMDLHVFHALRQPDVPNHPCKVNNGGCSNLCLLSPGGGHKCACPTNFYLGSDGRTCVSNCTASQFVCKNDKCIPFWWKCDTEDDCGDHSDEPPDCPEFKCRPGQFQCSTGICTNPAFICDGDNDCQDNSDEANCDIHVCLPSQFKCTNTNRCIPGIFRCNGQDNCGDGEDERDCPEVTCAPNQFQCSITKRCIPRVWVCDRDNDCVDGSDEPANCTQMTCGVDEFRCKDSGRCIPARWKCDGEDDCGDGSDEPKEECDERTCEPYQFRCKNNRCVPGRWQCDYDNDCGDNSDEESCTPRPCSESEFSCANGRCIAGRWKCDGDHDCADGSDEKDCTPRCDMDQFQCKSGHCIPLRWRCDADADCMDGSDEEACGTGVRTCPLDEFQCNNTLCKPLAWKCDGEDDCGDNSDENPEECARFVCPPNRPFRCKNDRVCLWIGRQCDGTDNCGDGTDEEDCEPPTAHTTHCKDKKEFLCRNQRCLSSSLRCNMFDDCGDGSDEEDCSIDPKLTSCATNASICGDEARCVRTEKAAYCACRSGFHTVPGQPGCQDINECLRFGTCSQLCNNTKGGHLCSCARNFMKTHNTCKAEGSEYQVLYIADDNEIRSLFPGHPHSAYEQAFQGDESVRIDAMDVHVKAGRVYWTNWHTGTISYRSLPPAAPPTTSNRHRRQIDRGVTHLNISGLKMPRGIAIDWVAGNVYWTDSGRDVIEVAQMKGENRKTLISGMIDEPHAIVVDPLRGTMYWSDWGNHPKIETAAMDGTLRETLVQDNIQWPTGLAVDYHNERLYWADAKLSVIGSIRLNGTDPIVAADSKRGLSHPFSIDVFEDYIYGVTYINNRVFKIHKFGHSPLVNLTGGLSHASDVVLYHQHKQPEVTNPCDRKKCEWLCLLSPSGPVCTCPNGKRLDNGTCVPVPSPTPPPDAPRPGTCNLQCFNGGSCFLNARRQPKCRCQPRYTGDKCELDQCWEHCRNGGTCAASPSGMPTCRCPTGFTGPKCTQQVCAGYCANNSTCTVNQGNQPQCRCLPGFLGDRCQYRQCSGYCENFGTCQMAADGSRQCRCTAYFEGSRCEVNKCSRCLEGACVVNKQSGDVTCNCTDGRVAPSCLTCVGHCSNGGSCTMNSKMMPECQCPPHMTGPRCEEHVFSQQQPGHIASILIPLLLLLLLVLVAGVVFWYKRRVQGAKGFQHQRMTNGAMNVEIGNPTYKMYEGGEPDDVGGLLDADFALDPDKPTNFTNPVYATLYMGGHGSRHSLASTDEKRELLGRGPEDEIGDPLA

In the case of “monomeric tau P301S (tau P301S_FLAG×3_10×his-tag), pHrodo-labelled (natural protein)”, the decrease in neuronal uptake of monomeric tau-pHrodo (tau-positive objects, live imaging over 4 h) with 100 nM soluble recombinant LRP1 domain IV (Human LRP1 Cluster IV Fc Chimera, R&D Systems) added was found to be 68% and the neuronal uptake of monomeric tau-pHrodo (tau-positive objects, live imaging over 4 h) with 10 nM RAP chaperone (Human LRPAP Protein, R&D Systems) added to block LDL receptors amounted to 63%.
